± gives the standard deviation of the averaged measurements.
Assay: total protein half-life in vivo (active degradation + dilution); higher = more stable protein
[1] = E. coli NCM3722 delta-clpP delta-lon delta-hslV, growth: N-lim chemostat, doubling time 6 h
[2] = E. coli NCM3722 delta-smpB, growth: N-lim chemostat, doubling time 6 h
[3] = wild type E. coli NCM3722, growth: C-lim chemostat, doubling time 3 h
[4] = wild type E. coli NCM3722, growth: C-lim chemostat, doubling time 6 h
[5] = wild type E. coli NCM3722, growth: C-lim chemostat, doubling time 12 h
[6] = wild type E. coli NCM3722, growth: N-lim chemostat, doubling time 12 h
[7] = wild type E. coli NCM3722, growth: P-lim chemostat, doubling time 12 h
[8] = wild type E. coli NCM3722, growth: P-lim chemostat, doubling time 6 h
[9] = E. coli NCM3722 delta-clpP, growth: N-lim chemostat, doubling time 6 h
[10] = E. coli NCM3722 delta-lon, growth: N-lim chemostat, doubling time 6 h
[11] = wild type E. coli NCM3722, growth: N-lim chemostat, doubling time 6 h
[12] = E. coli NCM3722 delta-hslV, growth: N-lim chemostat, doubling time 6 h

| Sequence | total protein half-life in vivo [1] [h] | total protein half-life in vivo [2] [h] | total protein half-life in vivo [3] [h] | total protein half-life in vivo [4] [h] | total protein half-life in vivo [5] [h] | total protein half-life in vivo [6] [h] | total protein half-life in vivo [7] [h] | total protein half-life in vivo [8] [h] | total protein half-life in vivo [9] [h] | total protein half-life in vivo [10] [h] | total protein half-life in vivo [11] [h] | total protein half-life in vivo [12] [h] |
| --- | --- | --- | --- | --- | --- | --- | --- | --- | --- | --- | --- | --- |
| MGSPSLYSARKTTLALAVALSFAWQAPVFAHGGEAHMVPMDKTLKEFGADVQWDDYAQLFTLIKDGAYVKVKPGAQTAIVNGQPLALQVPVVMKDNKAWVSDTFINDVFQSGLDQTFQVEKRPHPLNALTADEIKQAVEIVKASADFKPNTRFTEISLLPPDKEAVWAFALENKPVDQPRKADVIMLDGKHIIEAVVDLQNNKLLSWQPIKDAHGMVLLDDFASVQNIINNSEEFAAAVKKRGITDAKKVITTPLTVGYFDGKDGLKQDARLLKVISYLDVGDGNYWAHPIENLVAVVDLEQKKIVKIEEGPVVPVPMTARPFDGRDRVAPAVKPMQIIEPEGKNYTITGDMIHWRNWDFHLSMNSRVGPMISTVTYNDNGTKRKVMYEGSLGGMIVPYGDPDIGWYFKAYLDSGDYGMGTLTSPIARGKDAPSNAVLLNETIADYTGVPMEIPRAIAVFERYAGPEYKHQEMGQPNVSTERRELVVRWISTVGNYDYIFDWIFHENGTIGIDAGATGIEAVKGVKAKTMHDETAKDDTRYGTLIDHNIVGTTHQHIYNFRLDLDVDGENNSLVAMDPVVKPNTAGGPRTSTMQVNQYNIGNEQDAAQKFDPGTIRLLSNPNKENRMGNPVSYQIIPYAGGTHPVAKGAQFAPDEWIYHRLSFMDKQLWVTRYHPGERFPEGKYPNRSTHDTGLGQYSKDNESLDNTDAVVWMTTGTTHVARAEEWPIMPTEWVHTLLKPWNFFDETPTLGALKKDK | 4.75 | 5.04 ± 0.69 | 2.69 | 6.4 ± 0.067 | 6.83 | 11.8 | 11.1 ± 0.71 | – | – | – | – | – |
| MHADTATRQHWMSVLAHSQPAELAARLNALNITADYEVIRAAETGLVQIQARMGGTGERFFAGDATLTRAAVRLTDGTLGYSWVQGRDKQHAERCALIDALMQQSRHFQNLSETLIAPLDADRMARIAARQAEVNASRVDFFTMVRGDNA | – | – | – | – | – | – | 1.64 ± 0.035 | 1.11 ± 1.1 | – | – | – | – |
| MHENQQPQTEAFELSAAEREAIEHEMHHYEDPRAASIEALKIVQKQRGWVPDGAIHAIADVLGIPASDVEGVATFYSQIFRQPVGRHVIRYCDSVVCHINGYQGIQAALEKKLNIKPGQTTFDGRFTLLPTCCLGNCDKGPNMMIDEDTHAHLTPEAIPELLERYK [P0AFD1] | 5.62 ± 0.92 | 6.57 ± 0.34 | 2.65 ± 0.54 | 4.79 ± 0.22 | 8.87 ± 1.4 | 10.3 ± 0.36 | 11 ± 0.14 | 4.85 ± 0.61 | 5.62 ± 0.45 | 5.97 ± 0.51 | 5.04 ± 0.18 | – |
| MHKAILNSDLIATKAGDVTVYNYDGETREYISTSNEYLAVGVGIPACSCLDAPGTHKAGYAICRSADFNSWEYVPDHRGETVYSTKTGESKEIKAPGDYPENTTTIAPLSPYDKWDGEKWVTDTEAQHSAAVDAAEAQRQSLIDAAMASISLIQLKLQAGRKLTQAETTRLNAVLDYIDAVTATDTSTAPDVIWPELPEA | – | 2.04 ± 0.18 | – | – | 3.87 | 3.07 ± 0.66 | – | – | 2.37 | 1.83 | 3.06 | – |
| MHLITQKALKDAAEKYPQHKTELVALGNTIAKGYFKKPESLKAVFPSLDNFKYLDKHYVFNVGGNELRVVAMVFFESQKCYIREVMTHKEYDFFTAVHRTKGKK | – | – | – | – | – | – | 10.1 ± 0.64 | 6.72 | – | – | – | – |
| MHLSTHPTSYPTRYQEIAAKLEQELRQHYRCGDYLPAEQQLAARFEVNRHTLRRAIDQLVEKGWVQRRQGVGVLVLMRPFDYPLNAQARFSQNLLDQGSHPTSEKLLSVLRPASGHVADALGITEGENVIHLRTLRRVNGVALCLIDHYFADLTLWPTLQRFDSGSLHDFLREQTGIALRRSQTRISARRAQAKECQRLEIPNMSPLLCVRTLNHRDGESSPAEYSVSLTRADMIEFTMEH | – | – | – | 6.73 | – | – | 1.54 ± 0.86 | 0.458 ± 0.023 | – | – | – | – |
| MHNDKDLSTWQTFRRLWPTIAPFKAGLIVAGVALILNAASDTFMLSLLKPLLDDGFGKTDRSVLVWMPLVVIGLMILRGITSYVSSYCISWVSGKVVMTMRRRLFGHMMGMPVSFFDKQSTGTLLSRITYDSEQVASSSSGALITVVREGASIIGLFIMMFYYSWQLSIILIVLAPIVSIAIRVVSKRFRNISKNMQNTMGQVTTSAEQMLKGHKEVLIFGGQEVETKRFDKVSNRMRLQGMKMVSASSISDPIIQLIASLALAFVLYAASFPSVMDSLTAGTITVVFSSMIALMRPLKSLTNVNAQFQRGMAACQTLFTILDSEQEKDEGKRVIERATGDVEFRNVTFTYPGRDVPALRNINLKIPAGKTVALVGRSGSGKSTIASLITRFYDIDEGEILMDGHDLREYTLASLRNQVALVSQNVHLFNDTVANNIAYARTEQYSREQIEEAARMAYAMDFINKMDNGLDTVIGENGVLLSGGQRQRIAIARALLRDSPILILDEATSALDTESERAIQAALDELQKNRTSLVIAHRLSTIEKADEIVVVEDGVIVERGTHNDLLEHRGVYAQLHKMQFGQ | 5.89 ± 0.51 | 6.04 ± 0.25 | 3.38 ± 0.053 | 5.63 ± 0.13 | 11.4 ± 3 | – | 11.3 ± 0.23 | 5.9 ± 0.39 | 5.99 ± 0.27 | 6.51 ± 0.63 | 6.15 ± 0.19 | 6.35 ± 0.47 |
| MHPRFQTAFAQLADNLQSALEPILADKYFPALLTGEQVSSLKSATGLDEDALAFALLPLAAACARTPLSNFNVGAIARGVSGTWYFGANMEFIGATMQQTVHAEQSAISHAWLSGEKALAAITVNYTPCGHCRQFMNELNSGLDLRIHLPGREAHALRDYLPDAFGPKDLEIKTLLMDEQDHGYALTGDALSQAAIAAANRSHMPYSKSPSGVALECKDGRIFSGSYAENAAFNPTLPPLQGALILLNLKGYDYPDIQRAVLAEKADAPLIQWDATSATLKALGCHSIDRVLLA [P0ABF6] | 5.28 ± 0.35 | 4.89 ± 0.18 | – | 6.09 ± 0.4 | 10.7 ± 0.78 | 8.624 ± 0.078 | 11.7 ± 0.35 | 5.88 ± 0.059 | 5.6 ± 0.071 | 6.28 ± 0.78 | 5.04 ± 0.077 | 6 ± 1.1 |

Source: the supplement of paper PMC11246515
